Results as given in publication PMC11481066 (2024).
Like-named read-outs stand apart in the source and are kept apart here.

B1: ab8 nanobody, wild type (VHH)
VHH: EVQLVESGGGLVQPGGSLRLSCAASGFTFDDYAMSWVRQAPGKGLEWIGRMYNNGRTSYNPSLKSLVTISRDNSKNTLYLQMNSLRAEDTATYYCARDNLGYRPSENLYGMDVWGQGTTVTVSS
B2: ab8 E127W mutant nanobody (VHH)
VHH: EVQLVESGGGLVQPGGSLRLSCAASGFTFDDYAMSWVRQAPGKGLEWIGRMYNNGRTSYNPSLKSLVTISRDNSKNTLYLQMNSLRAEDTATYYCARDNLGYRPSWNLYGMDVWGQGTTVTVSS
B3: H11-H4 L106F mutant nanobody (VHH)
VHH: QVQLVESGGGLMQAGGSLRLSCAVSGRTFSTAAMGWFRQAPGKEREFVAAIRWSGGSAYYADSVKGRFTISRDKAKNTVYLQMNSLKYEDTAVYYCAQTHYVSYLFSDYATWPYDYWGQGTQVTVSS
B4: H11-H4 H100Y mutant nanobody (VHH)
VHH: QVQLVESGGGLMQAGGSLRLSCAVSGRTFSTAAMGWFRQAPGKEREFVAAIRWSGGSAYYADSVKGRFTISRDKAKNTVYLQMNSLKYEDTAVYYCAQTYYVSYLLSDYATWPYDYWGQGTQVTVSS
B5: H11-H4 V102Y mutant nanobody (VHH)
VHH: QVQLVESGGGLMQAGGSLRLSCAVSGRTFSTAAMGWFRQAPGKEREFVAAIRWSGGSAYYADSVKGRFTISRDKAKNTVYLQMNSLKYEDTAVYYCAQTHYYSYLLSDYATWPYDYWGQGTQVTVSS
B6: H11-H4 nanobody, wild type (VHH)
VHH: QVQLVESGGGLMQAGGSLRLSCAVSGRTFSTAAMGWFRQAPGKEREFVAAIRWSGGSAYYADSVKGRFTISRDKAKNTVYLQMNSLKYEDTAVYYCAQTHYVSYLLSDYATWPYDYWGQGTQVTVSS
B7: H11-H4 L106W mutant nanobody (VHH)
VHH: QVQLVESGGGLMQAGGSLRLSCAVSGRTFSTAAMGWFRQAPGKEREFVAAIRWSGGSAYYADSVKGRFTISRDKAKNTVYLQMNSLKYEDTAVYYCAQTHYVSYLWSDYATWPYDYWGQGTQVTVSS

Tests used:
Assay in all cases: BLI
[1] = target: T1, SARS-CoV-2 spike protein receptor binding domain, wild-type (Wuhan type) (SARS-CoV-2, UniProt P0DTC2)
[2] = target: T1, SARS-CoV-2 spike protein receptor …; remark: listed apart in the source
[3] = target: T1, SARS-CoV-2 spike protein receptor …; remark: listed apart in the source
[4] = target: T1, SARS-CoV-2 spike protein receptor …; remark: listed apart in the source

Binder	koff [1] [s⁻¹]	Kd [2] [nM]	Kd [3] [nM]	koff [4] [s⁻¹]
B1	0.0291	51.4		
B2	0.0148	2.18		
B3			164	0.149
B4			238	0.145
B5			180	0.543
B6			63.6	0.0406
B7			132	0.739
